Data taken from US20060257867.

Target: T1, ghrelin (D-enantiomer, rat) (Rattus norvegicus) (UniProt Q9QYH7)
T1 sequence: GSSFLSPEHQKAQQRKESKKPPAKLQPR
Assay: pulldown
Conditions: bead assay, active conformation; 37 C

Row | Sequence | Kd
1 | GGAGCUCAGACUUCACUCGUGUGAGGCAAUAAAAACUUAAGUCCGAAGGUAACCAAUCCUACACGUACCACUGUCGGUUCCAC [E3] | < 100 nM
2 | GGAGCUCAGACUUCACUCGUGUGAGGCAAUAAAACAUAAGUCCGAAGGUAACCAAUCCUACACGUACCACUGUCGGUUCCAC [B7] | < 100 nM
3 | GGAGCUCAGACUUCACUCGUGUGAGGCAAUAAAACUUAAGUCCGAAGGUAACCAAUCCUGCACGUACCACUGUCGGUUCCAC [E12] | < 100 nM
4 | GGAGCUCAGACUUCACUCGUGUGAGGCAAUAAAACUUGUAAGUCCGAAGGUAACCAAUCCUACACGUACCACUGUCGGUUCCAC [B12] | < 100 nM
5 | GGAGCUCAGACUUCACUCGUGUGAGGCAGUAAAACUUAAGUCCGAAGGUAACCAAUCCUACACGUACCACUGUCGGUUCCAC [G2] | < 100 nM
6 | GGAGCUCAGACUUCACUCGUGUGAGGUAGUAAAAAAAAAAAAAAAACAUAAAUCCGAAGGUAACCAAUCCUACACGUACCACUGUCGGUUCCAC [G5] | < 100 nM
7 | GGAGCUCAGACUUCACUCGUGUGAGGUAGUAAAAAAAAAAAACGUAAAUCCGAAGGUAACCAAUCCUACACGUACCACUGUCGGUUCCAC [A12] | < 100 nM
8 | GGAGCUCAGACUUCACUCGUGUGAGGUAGUAAAAAAAAAAACGUAAAUCCGAAGGUAACCAGUCCUACACGUACCACUGUCGGUUCCAC [F5] | < 100 nM
9 | GGAGCUCAGACUUCACUCGUGUGAGGUAGUAAAAAAAAAACGUAAAUCCGAAGGUAACCAAUCCUACACGUACCACUGUCGGUUCCAC [A3] | < 100 nM
